Reference: patent US20240209399A1

Biological target: TnsC-BP-NLS-VP64 (plasmid pSL2783, p6A_hCO_Vch_TnsC_BP-NLS-VP64) (Vibrio cholerae)
Experiment: cell-based or functional assay

## TnsABf (plasmid pSL2669, pcDNA3.1_hCO_Vch_TnsA_BP-NLS_TnsB)
  level of transcriptional activation (mCherry MFI relative to the non-targeting control, HEK293T reporter assay): 2 fold
